This experiment deals with T1, human VEGF (human, UniProt P15692 207-395, biotinylated).
T1 construct: also called hVEGF; hVEGF-biotin
T1 sequence: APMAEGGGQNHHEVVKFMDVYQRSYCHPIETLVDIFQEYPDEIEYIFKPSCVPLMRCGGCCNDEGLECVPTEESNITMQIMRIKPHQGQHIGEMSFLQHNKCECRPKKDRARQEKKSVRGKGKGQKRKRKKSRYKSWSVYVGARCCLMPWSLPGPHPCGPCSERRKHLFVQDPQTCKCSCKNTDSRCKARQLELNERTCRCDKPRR
As to the kind of experiment: SPR (Biacore), ligand hVEGF-biotin, 25 C. (In general: Surface plasmon resonance follows binding to a sensor surface in real time, without labels.)

B1: NVS1j (Fab)
heavy: EVQLVESGGGLVQPGGSLRLSCTASGFSLTDYYYMTWVRQAPGKGLEWVGFIDPDDDPYYATWAKGRFTISRDNSKNTLYLQMNSLRAEDTAVYYCAGGDHNSGWGLDIWGQGTLVTVSSASTKGPSVFPLAPSSKSTSGGTAALGCLVKDYFPEPVTVSWNSGALTSGVHTFPAVLQSSGLYSLSSVVTVPSSSLGTQTYICNVNHKPSNTKVDKRVEPKSCGS
light: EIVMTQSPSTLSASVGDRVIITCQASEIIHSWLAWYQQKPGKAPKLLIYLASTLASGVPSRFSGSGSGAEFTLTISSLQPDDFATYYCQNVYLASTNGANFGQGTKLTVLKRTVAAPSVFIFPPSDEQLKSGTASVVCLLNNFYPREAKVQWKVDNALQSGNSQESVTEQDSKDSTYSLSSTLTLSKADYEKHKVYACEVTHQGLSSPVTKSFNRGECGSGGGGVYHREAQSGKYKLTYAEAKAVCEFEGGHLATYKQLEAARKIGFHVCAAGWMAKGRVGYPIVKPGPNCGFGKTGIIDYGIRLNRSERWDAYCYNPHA
notes: Tag on the C-terminus of the light chain of NVS4; The heavy chain number is printed as '[9]215'
As a reminder, the Kd is the constant that tells how readily two partners part at equilibrium. High values mean lower affinity, low ones higher affinity. One may read the koff as a measure of how fast the partners let go of each other. As usually defined, the kon is the rate constant with which the complex forms. In turn, B1 returned a dissociation constant Kd of 5.64 pM, a koff of 0.000172 s⁻¹ and a kon of 3.05e+07 M⁻¹ s⁻¹.

The values are drawn from patent US20160297854A1 (Novartis, published 2016).
